Results taken from the domain aggregation screens of Martell et al. (2025).

Test: soluble fraction after stress (log2 fold change); higher = more stays soluble; pooled small domains, quantitative proteomics
Conditions: stress: pH 4
In short: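 With high-throughput quantitative proteomics, pooled custom libraries of small protein domains were measured after pH 4 stress. Each domain's soluble amount after the stress gives a fold change taken as aggregation propensity. Higher log2 values mean more of the domain stayed soluble.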

Row | Sequence | soluble fraction (log2)
1 | HMRIAQYRQIENDLLEQINLGYYKKGDLIPTELELSATYHVSRVTVRKATDNLVAKGILQRVAGVGTFVSR | 0.0958
2 | HMDMQMPIMNGLEFLERINLTLDDNFSIIVLTGKIEDKSIEKSFELGINAYLRKPFNIYALLGIVRQN | -0.102
3 | HMINFSKNIISDTTSIKEAIEILNIISGRDNHILFVLNDKRQLIGTLSDGDVRRGMLASKTISQSVTEVM | 0.0244
4 | HMPLLKIGAQGHDVRVVQEALQRAGYAIEGVTGIFDEATREAVLAFQRDQQLTESGTVDRATWHALRR | -0.52
5 | HMRLLGEPLAGRLKKDVPVVTGRSTESKAIAQFFELRWSHLPDPEARTISVASGRIDFMDVGATRFSLR | 0.124
6 | HMNSLPFSNFMNEVEAGRVVEVKIQGNNISGVLANGKTFSTYSPNYPELVEKLSSNGVSIVATPQ | -0.0501
7 | HMDLDPNKPAIPIAYPRVLLNIMAEKGFSRTEVLAGSGLADSVFDKPDHRITPAQFLFILMNSFYLS | -0.631
8 | HMNTVAGAISDLSFKVRGSEDIEKLNRLKALSIQAKLDVQGQEEAERLISELEAKYGSLGMTVDKVSGKIA | 0.192
9 | HMALDLNEDEKLLVELIEKAGGTAGLGELKEASGLSGKKWDKTTKNLSKEGLIKVEKNESGLWVHLT | -0.423
10 | HMQSTVSTHQKTLALDTAQSGIPVFPVSSTHKRPLTDHGYKDATADADAVRKIWQQFPSAFV | 0.22
11 | HMEKNILPDTSPEKQYEFATSFLKVGDYSTAERAFREFVINNSEHKLAGNAQYWYAETFRIRQ | 0.148
12 | HMPHTDATDKQIIALILETLKDGQKHSVSEMTFPGIPREKTAQLLHQMIEEETVRIQNGVLFLPH | -0.118
13 | HMPKDLEKRAAILAAAKHLFPVHGFEGTSMDAIAALANVSKLTVYSHFKDKESLFTEAIREK | 0.163
14 | HMVNIEAEVGRRLRQLRARRGLSLRALADLSGLNVNTLSLIENSKTSPSVSTLQQLARSLQVPITTFFESD | 0.142
15 | HMYSQEEKRYMEIMEIKPQELSAENLKKQYKKLVKKYHPDLHQDDKQAAEEKFKQLTNAYQVLMRRF | -0.0526
16 | HMLETLVYPNPTTDKILLSSPVDYHLFSLKGELVLEGRGSSIEVSQLSKGVYFLNTKTQTFKIIK | -0.156
17 | HMEIHQVEFGGKVISFVLERKPVKNVNLHIKPDMTVMVSANEKVPLDFILGFVKQKAAWILKNIQFFEDV | -1.08
18 | HMLPLIEVPAVTGKYLTKAKSALKDAGLDTGDIKRVEHEEHGENYVLKQDPPAGTKVPFGTTVSLTVVAP | 0.15
19 | HMAWAVRAGEGVLIRAGQPGFSATTRGTALSNGAIGEGVRVRNLGSGKEIQAWVVDKGEVETR | 0.136
20 | HMFERFIFTDEVYIRLKKSGLPQTTLRPLLEIHGKSFDHNEINIILSGLIPNQDFERYAQIIKSHSRF | -2.14
21 | HMFSPSDEDLELAHRQIRAFEEVEANGKSIAVVDGRIVESLHIVTARDTLEKAKAITALAEEM | -0.0013
22 | HMGDTPVDFSEFIRWVDTGVVDRVELTGNEIVGTSSSGERFSTYAPPQYEGLGNKLIERDIVVVATAA | -1.21
23 | HMQPQIDFEIDVEVRASSLRIVAAPNSDVLVATVGRGEHVVQLTYPKDGWVMIRTADDRVGFVPESLLL | -0.254
24 | HMVGGIAIGQFNVPRGSVKVTAGGRLLQEGLDYTVNYQAGRVQILDESLKNSNVPIEISTESNS | -0.111
25 | HMRSPLYVQIKQHILGDIRKGVWKPGEKLPTELDLAERFGVSVGTVRRAMGGLEDEGIISRREGSGTFVRT | 0.229
26 | HMDINLGIGPLVKKYRTIKGYSIRELARNINVTASMLSQIERDIVNPSINTLKAISVELGVPMYKFFM | -0.217

Row | Sequence | soluble fraction (log2)
27 | HMEFTKSPLDEIAGVGPARKRALLAAFGTAKAVSQAALADLEKTPGVNAATARLVYAHFHEK | 0.22
28 | HMVNKQERTYTILRDRIHSGSFAPLERLNIDALARELGVSPIPVREALRRLEAEGWVRFTPNVGAVVSP | 0.308
29 | HMTEAVYMPALQNKTLEEAQRIVEQYDLELEYTYEANAQVEEGRILSQTPQMGVLVERGEKVQAVVSLG | -0.43
30 | HMPESFSEMQKRTGVGEFSDDALSAKYVDSIDADVMSLDEYIMKVRGISLDDLEAERALRAR | -0.884
31 | HMEMTDKEEELMRIFWNHGPMFVREIVELYPEPRPHFNTLSTFVRNLEQKGFVSHEAVGGSFRYYAV | -1.44
32 | HMWGQDVLFTIDKKEFKGKLLEQSDKHTTFLPDGQKTPQKIPNRLIKEIHLGSNKIIDFGNDFLI | 0.0314
33 | HMTLTPEQQAARRSEIVDIALRLIAENGFQKTSMREIADLAKMGKSSLYDFFKTKDEIAVYAMEKK | -0.856
34 | HMDITGIGIKKRIKAIIDSEDKKNPLSDTQIVEILKNEGLEISRRTVAKYRSDLQIPSSSKRKK | 0.335
35 | HMSLDLERAVALLSLPRPVGNHPEDGELVEAGIGRYGPYVKHGSKYANLPDADEVFTIGMNRAVEVLAAK | -0.261
36 | HMGENTIFSGVLGEGRLDSALAHALPQFSRARIQGLIAEDAVLIAGKATNDAASKKFAGQSFELSVPAPRP | 0.0263
37 | HMEESTYQWNNFVRDFYASRVSAQYTNKLKVAAILWHHVKNTPQSKIYHDNLVSKYAEEINYFK | -0.387
38 | HMNQSYQLWIKDDELGPTPRSVGVLNEHFEVDPAALTNYDAELLRRATFGISLEPRGGSPTGQP | -0.688
39 | HMTKTEFLNLLEQRLFVLNDNERADLLSEYKQHIEMKIQSGLSEEEAIADFGDPEELIKELLEAY | -1.13
40 | HMTDRKRDAIVQAAIGEFREHGFNGTSMDRVAAAADVSKRTVYNHFPSKEELFEAILLLMWE | -1.78
41 | HMPLLSPRQLDVLSLAAGGLSDAQIAGRLVLSESTVRVHFHHIIEKLGVTDRAGAIAWYEQSRS | -0.378
42 | HMSKLSLREIVKKFEEQIIQLHKRGLNHSEISREIVTKNSIDLGDSHIDSLRRAISVHLQTP | -0.201
43 | HMYTTHTQSELNEAARFNGRATYQKGIYYNESKKEHFKVVNGKYQALPNVKQVNGDSWIDKTGITHKG | 0.202
44 | HMNAAFMKAERLLAILNILLTGKRVSSTELAKKLEVSVRTVYRDVEALSEAGFPVYATMGRDGGFGLIEGF | -1.58
45 | HMGTMKGFVDGSSVHLRSGPSLSESIRAKVVKGQTLYITERRGDWYRATVHGGGEGWIHTSLVKLAG | 0.261
46 | HMDVLKVFSHNVRRYRTQLGLSQETVAFRTGLHRTYISAVERGKRSISLDNIQKIADALEVETYLLFI | 0.22
47 | HMVGAEDISKPMNLGALMRTAHAFGASFFFTINAHPKVRHAYNSDTSRSFDHMPYYPWDTMEE | -0.287
48 | HMSTSIADNSSITYKVRKGDSLASIAKRHGVNINDVMRWNSVITKASQIQPGDMLTLYVRDS | ≥ 0.43
49 | HMIVDYPSFVGKTKQELEKWAKENNIIIRYRQLSVTASDKVKAQLPATTTYKRIMKGSSIEVELEL | -0.749
50 | HMLSRNEWLVMEALWERPSTLMELVRQLGQEPPGWAKSTTATMVRRMEEKGLIRHEAGSKARVYHP | -0.325
51 | HMEPQLVKSFDVQTELTYDQFLSKYPESHTLGRLLVQPEPIPFEPYKNIPGITPEKLLALHAKHLEAR | -0.169
52 | HMSGTFIGGELVKPGEPLTPMQRAAITMGLQMGNTYSPEIMEKYNNAGGSPSKEEFENYQKNKS | 0.22

Row | Sequence | soluble fraction (log2)
53 | HMNIEANLEDILRRAMPSAAKLILENSLNINKIIGTGKEGRITKGDVLLYLKDKNLILENILN | 0.0861
54 | HMTAKQDLDSIYRHLVATRKSIAENPKMVSSIDDPQALIKMLDYAIQYFYTDKRDEALAVLEKNEEQLNFR | -0.206
55 | HMVVDEQRIQTLVSAAEQNSSDPVPRVTLGNLYFDAEQFEEAVKWYEQALALDPRNVNVSTDLGVGYYY | -0.451
56 | HMQLNNTDELEKIILKILENNPKQVDQFLAGKQKLLGFFVGQAMRATSGKANPKTVNDLLEKFLSK | -0.335
57 | HMSDKPRYYINGNTLFISDKSVKKVLFSDLSGRSILHTTETAINIATFRGAHILTVIYTDGSTKSEVIF | 0.235
58 | HMNTFKNIFIQEGDLFNLKKNDNQIIFAKEGILINENKKIFRLLNGKIISTNNNRLIGFEFDKIDYNLSN | -0.0628
59 | HMRSSAATMFGRIALKNKLVDEATLKKVMSELPAGADLGAVLVKQGLISEQHAEAIQKKITAHMKSAP | 0.0511
60 | HMDFKKKIIESWADIAETLRGLTVDSNISDWTTKQKNAYETLADKAELAGLSIADLNSILVELGYM | -0.378
61 | HMSRGTLFVDVRGAVAKPGVYELPEKSRVFQAVEAAGGLLPEALERLVNQAAELTDGQQVYIPFEGEE | 0.429
62 | HMENYQIETFVKFIEESTGEDGVAFEDLFQNFTSRPAVITMFLALLEALRRNSIRIFQKEEFSQILIYPK | -1.21
63 | HMSDPVKQVAMRILDLREISDYTVDKMAEVLNVPVEEYRKYESGEVDMPISFLVKIGEVFHVDMTELLTG | -0.679
64 | HMISESIPAKDALLRLLNTAYQTRTNAAGEFYFNDVPPGKYILQASVNDVEIIRENISINEN | -0.433
65 | HMTYFDIAPELLTVYKEINDIPRDINQIVRKTGLSINEVSYKTMILQLEDKIVELPGQRFIRNS | -0.815
66 | HMKYGPSTVATLKVARLGEMGAFLDAETGDTSDDILLHKTQQTAPVKVGDEVEVFLYLDPKRRLTASMRV | -1.07
67 | HMGIRYQLADDVTDEQITAMTGKKAKIAAAIKAAGSAVSKMNVAGEMGYDKQNPINKDFMELVDAGIIVPS | -0.121
68 | HMTRNEFLTALRGRLSALPKEEQDAALKYYEEYFDEAESEEDAARQLGSPDSIAEKILADYA | -0.00949
69 | HMQMTTPQMVPLFTDLSVDDSASIIKDLERQAVPYQIKSDGAIIMVPKDKVTRLRMKLAESGLPK | 0.402
70 | HMDGKPSLIISNGQINYKEMVKLRYSLEDLLFQLRQNSIKSIEEVEYAFLESNGKLSIFPYNFL | -1.65
71 | HMNDPIESLTPREREVLTLMAEGRTNAAIAAQLVVTEGAVEKHTQHIFAKLGLLPDSAVHRRVKAVLALLS | -0.637
72 | HMNETVTNQTVLDLLKEGFTSEEIIGAIENSSTRTITYDINFMRQLKAAGADVTLTTYLQKIAKKDM | -0.711
73 | HMEKLNYSISNEEQGQRIDKYLSLMIEGKSRSFIQGLIDDKKVMANGKVIKSNYKLKNNDEITVEMPDPI | 0.0918
74 | HMEVTENQEKHAYQEAMDQALRFLAPRFLSRAELTRKLLQKEHDRDVIDAVIDRLEELDYVDDAR | -0.69
75 | HMDIEITIPPEAKELDVSKILISGNIITDEQEFLDYLKQNNVAAFKDGNYKLNKNMTTEEIVNQIK | -1.2
76 | HMLSGGEVKRIEIATILARKSGLMIFDEPEAGIDLWSFARLVETFEDIRSNTSGSLVIISHQ | -0.0926
